In the supplement of paper PMC7125110:
± gives the standard error. For some assays here: Fewer inactive variants are shown than the library holds.

B1: glmS ribozyme (parent)
chain: AUAAAAGCGCCAGAACUACAGAAAUGUAGUUGACGAGGAGGAGGUUUAUCGAAUUUUCGGCGGAUGCCUCCAAA

What was measured:
Conditions in all cases: with glucosamine-6-phosphate
[1] = variants of: B1; assay: kcat; higher = faster cleavage; RNA array
How it was run: (§1)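 Using a hybridised Cy3 probe at 37 °C, barcoded ribozyme variants transcribed in situ by E. coli RNA polymerase on sequenced MiSeq chips were monitored across tiles imaged over ~14 h. The flow contained glucosamine-6-phosphate from 40 μM to 10 mM in HEPES/KCl/Mg(OAc)2 buffer. Signals were normalised to baseline and to non-cleaving reference variants before per-tile medians were fit to one- or two-exponential decays to yield kobs. Weighted Michaelis–Menten fits across concentrations gave kcat and KM.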

[2] = variants of: B1; assay: self-cleavage kobs at 40 uM GlcN6P; higher = faster cleavage; RNA array
How it was run: as §1

[3] = variants of: B1; assay: self-cleavage kobs at 160 uM GlcN6P; higher = faster cleavage; RNA array
How it was run: as §1

[4] = variants of: B1; assay: self-cleavage kobs at 640 uM GlcN6P; higher = faster cleavage; RNA array
How it was run: as §1

[5] = variants of: B1; assay: self-cleavage kobs at 2500 uM GlcN6P; higher = faster cleavage; RNA array
How it was run: as §1

[6] = variants of: B1; assay: self-cleavage kobs at 10000 uM GlcN6P; higher = faster cleavage; RNA array
How it was run: as §1

[7] = variants of: B1; assay: KM; higher = weaker cofactor use; RNA array
How it was run: as §1

Variant | kcat [1] | self-cleavage kobs at 40 uM GlcN6P [2] | self-cleavage kobs at 160 uM GlcN6P [3] | self-cleavage kobs at 640 uM GlcN6P [4] | self-cleavage kobs at 2500 uM GlcN6P [5] | self-cleavage kobs at 10000 uM GlcN6P [6] | KM [7]
A53U U69A | 0.000102 ± 1.2e-05 s⁻¹ | 4.28e-05 ± 1.3e-05 s⁻¹ | 5.84e-05 ± 1.7e-05 s⁻¹ | 0.000146 ± 3.1e-05 s⁻¹ | 0.000103 ± 1.7e-05 s⁻¹ | 9.48e-05 ± 1.3e-05 s⁻¹ | 
C16G C34U | < 1e-05 s⁻¹ | < 1e-05 s⁻¹ | < 1e-05 s⁻¹ | < 1e-05 s⁻¹ |  | < 1e-05 s⁻¹ | 
G13A C50G C61G G66U | 0.000136 ± 9.6e-06 s⁻¹ | 9.58e-05 ± 1.7e-05 s⁻¹ | 0.000112 ± 3.4e-05 s⁻¹ | 0.000165 ± 5.4e-05 s⁻¹ | 0.000149 ± 3.8e-05 s⁻¹ | 0.000126 ± 2.6e-05 s⁻¹ | 17.2 ± 6.7 µM
A6U | 0.000447 ± 1.4e-05 s⁻¹ |  | 2.53e-05 ± 2.3e-06 s⁻¹ | 8.33e-05 ± 1.6e-06 s⁻¹ | 0.00022 ± 4e-06 s⁻¹ | 0.000346 ± 6.3e-06 s⁻¹ | 2740 ± 150 µM
G59C C67G | < 1e-05 s⁻¹ |  |  |  |  |  | 
C11U U47G | 0.000176 ± 3.3e-05 s⁻¹ |  |  | 7.97e-05 ± 1.3e-05 s⁻¹ | 0.000191 ± 3.3e-05 s⁻¹ | 0.000149 ± 2.2e-05 s⁻¹ | 
C16U A42C | 1.1e-05 ± 6.5e-07 s⁻¹ |  |  |  |  |  | 
U31G G59A C70G | 3.81e-05 ± 8.1e-06 s⁻¹ |  |  |  | 3.86e-05 ± 1.5e-05 s⁻¹ |  | 
A14C A39G | 0.0127 ± 0.0026 s⁻¹ | 0.000147 ± 1.6e-05 s⁻¹ | 0.000352 ± 0.00017 s⁻¹ | 0.00155 ± 0.0003 s⁻¹ | 0.0051 ± 0.00078 s⁻¹ | 0.0095 ± 0.0016 s⁻¹ | 3770 ± 970 µM
G32A U54A C67G | 0.000168 ± 2.5e-05 s⁻¹ |  | 8.09e-05 ± 1.6e-05 s⁻¹ |  | 0.000137 ± 2.7e-05 s⁻¹ | 0.00018 ± 3.3e-05 s⁻¹ | 216 ± 100 µM
A15U C16A | 0.00121 ± 9.4e-05 s⁻¹ |  | 6.19e-05 ± 8.7e-06 s⁻¹ | 0.000244 ± 2.2e-05 s⁻¹ | 0.000544 ± 7e-05 s⁻¹ | 0.000959 ± 9.8e-05 s⁻¹ | 2740 ± 310 µM
A6G A12U | 0.000134 ± 1.7e-05 s⁻¹ |  |  | 7.58e-05 ± 1.1e-05 s⁻¹ | 0.000155 ± 2.1e-05 s⁻¹ | 0.000119 ± 1e-05 s⁻¹ | 
A53C C67G | 3.47e-05 ± 4.1e-06 s⁻¹ | < 1e-05 s⁻¹ |  |  | 3.42e-05 ± 9e-06 s⁻¹ | 3.14e-05 ± 6.5e-06 s⁻¹ | 
C16A U56C | 0.000253 ± 8.5e-06 s⁻¹ | < 1e-05 s⁻¹ |  | 6.38e-05 ± 1.8e-05 s⁻¹ | 0.000144 ± 3.2e-05 s⁻¹ | 0.000211 ± 3.4e-05 s⁻¹ | 1940 ± 160 µM
U49C C71G | 1.02e-05 ± 5.3e-07 s⁻¹ |  |  |  |  |  | 
G13U G32U | 0.00043 ± 2.8e-05 s⁻¹ |  | 2.69e-05 ± 1.1e-05 s⁻¹ | 6.64e-05 ± 8.3e-06 s⁻¹ | 0.000182 ± 3.1e-05 s⁻¹ | 0.000321 ± 3.4e-05 s⁻¹ | 3420 ± 370 µM
